Measurements taken from publication PMC7515702.

Columns and labels:
Experiment in all cases: fluorescence polarization
Details in all cases: no NAD+, 250 mM NaCl; Kd: 5 nM probe, 12 mM HEPES pH 8.0, 250 mM NaCl, 4% glycerol, 5.7 mM beta-mercaptoethanol, 0.05 mg/ml BSA, 30 min RT. Competition: 40 nM PARP1, 20 nM probe …
PARP1 WT = PARP1 WT (UniProt P09874)
PARP1 H862D H862D = PARP1 H862D H862D (UniProt P09874)
PARP1 E988K E988K = PARP1 E988K E988K (UniProt P09874)
PARP1 H862A H862A = PARP1 H862A H862A (UniProt P09874)
Chain of PARP1 H862A H862A (P09874 whole entry H862A): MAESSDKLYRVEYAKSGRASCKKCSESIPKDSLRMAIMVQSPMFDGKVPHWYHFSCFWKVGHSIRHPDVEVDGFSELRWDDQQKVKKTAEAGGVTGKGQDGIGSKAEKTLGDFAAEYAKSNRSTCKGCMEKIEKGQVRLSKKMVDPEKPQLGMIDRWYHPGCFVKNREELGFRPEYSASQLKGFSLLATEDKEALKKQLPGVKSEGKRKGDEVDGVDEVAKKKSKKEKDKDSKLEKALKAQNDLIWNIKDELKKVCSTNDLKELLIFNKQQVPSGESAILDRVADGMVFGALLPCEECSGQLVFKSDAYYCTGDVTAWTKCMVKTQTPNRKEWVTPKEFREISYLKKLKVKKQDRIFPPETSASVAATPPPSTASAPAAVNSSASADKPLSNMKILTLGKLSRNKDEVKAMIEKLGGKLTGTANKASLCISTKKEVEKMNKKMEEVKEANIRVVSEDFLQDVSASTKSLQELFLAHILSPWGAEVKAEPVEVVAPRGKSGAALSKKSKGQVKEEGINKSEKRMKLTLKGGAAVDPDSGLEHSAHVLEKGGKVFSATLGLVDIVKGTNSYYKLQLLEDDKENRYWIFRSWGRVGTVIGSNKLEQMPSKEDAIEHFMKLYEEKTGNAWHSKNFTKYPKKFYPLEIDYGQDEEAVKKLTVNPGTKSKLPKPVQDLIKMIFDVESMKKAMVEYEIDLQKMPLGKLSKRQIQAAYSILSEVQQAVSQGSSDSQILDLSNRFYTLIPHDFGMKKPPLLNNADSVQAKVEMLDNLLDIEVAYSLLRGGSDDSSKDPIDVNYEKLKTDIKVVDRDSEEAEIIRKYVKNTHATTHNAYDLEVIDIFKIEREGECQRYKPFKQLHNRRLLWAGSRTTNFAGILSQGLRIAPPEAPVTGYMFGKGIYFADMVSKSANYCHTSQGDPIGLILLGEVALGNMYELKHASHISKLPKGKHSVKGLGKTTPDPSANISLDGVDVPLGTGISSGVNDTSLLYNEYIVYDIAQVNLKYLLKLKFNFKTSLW

Chain of PARP1 H862D H862D (P09874 whole entry H862D): as the sequence (P09874 whole entry H862A) above, with A862D counted along it
Chain of PARP1 WT (P09874 whole entry): as the sequence (P09874 whole entry H862A) above, with A862H counted along it
Chain of PARP1 E988K E988K (P09874 whole entry E988K): as the sequence (P09874 whole entry H862A) above, with A862H, E988K counted along it

Work on “GCTGAGCTTCTGGTGAAGCTCAGCTCGCGGCAGCTGGTGCTGCCGCGA [nicked dumbbell DNA (SSB probe)]” yielded a Kd (PARP1 WT) of 122 nM, a Kd (PARP1 H862D H862D) of 11.2 nM and a Kd (PARP1 E988K E988K) of 7.4 nM. The Kd (PARP1 H862A H862A) was 176 nM.
